Results as given in patent US20100310573A1.

Molecular target: recombinant human CD4 (catalogue number: 514-CD/CF, manufactured by R&D Systems) (human) (UniProt P01730)
Test: SPR, Biacore T100; antibody captured on anti-mouse IgG chip, recombinant human CD4 flowed; 1:1 binding model

Substance | Kd [nM] | koff [s⁻¹] | kon [M⁻¹ s⁻¹]
13B8.2 (Beckman Coulter), commercially available anti-human CD4 mouse antibody | 0.352 | 0.000156 | 444000
Leu-3a (BD Biosciences), commercially available anti-human CD4 mouse antibody | 0.117 | 0.000129 | 1.1e+06
anti-CD4 mouse monoclonal antibody OKT4 (manufactured by BioLegend) | 2.9 | 0.00306 | 1.05e+06
